In patent US20140322233A1 (Takeda / Millennium, published 2014):
Residue numbers refer to the chain shown, from its start.

Key:
[1] = target: T1, human GCC, full length with myc tag (293-GCC#2 cells) (human, UniProt P25092 24-1073); assay: cell-based or functional assay
TOK107-hIg [2] = target: T2, TOK107-hIg (human); assay: ELISA on coated TOK107-hIg
T2 construct: Expressed in HEK293 cells; Fc mutated at the CH1 cysteine and at lysine 235 and glycine 237 to alanine; also called hGCC-ECD/hIgG1 Fc; TOK107-hIgG
T2 sequence (chain, as listed by the source limits assumed): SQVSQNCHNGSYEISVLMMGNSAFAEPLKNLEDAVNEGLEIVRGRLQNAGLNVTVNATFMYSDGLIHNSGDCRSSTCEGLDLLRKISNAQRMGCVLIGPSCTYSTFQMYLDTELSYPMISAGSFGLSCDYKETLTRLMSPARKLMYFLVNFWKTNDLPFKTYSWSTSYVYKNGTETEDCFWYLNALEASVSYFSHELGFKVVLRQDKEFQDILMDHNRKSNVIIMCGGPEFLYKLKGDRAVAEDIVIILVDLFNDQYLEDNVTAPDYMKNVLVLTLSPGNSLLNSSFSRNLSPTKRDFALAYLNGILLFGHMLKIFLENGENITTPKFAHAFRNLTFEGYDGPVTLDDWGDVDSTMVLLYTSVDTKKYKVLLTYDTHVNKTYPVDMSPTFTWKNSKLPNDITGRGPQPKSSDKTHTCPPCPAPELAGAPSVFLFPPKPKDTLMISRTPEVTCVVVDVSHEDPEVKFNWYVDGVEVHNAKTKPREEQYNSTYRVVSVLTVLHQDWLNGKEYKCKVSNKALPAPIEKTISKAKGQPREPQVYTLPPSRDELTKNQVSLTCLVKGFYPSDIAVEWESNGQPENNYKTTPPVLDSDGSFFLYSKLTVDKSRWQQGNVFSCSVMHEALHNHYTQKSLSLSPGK

TOK107-hIg [3] = target: T2, TOK107-hIg; assay: ELISA against TOK107-hIg
[4] = target: T3, human guanylyl cyclase C (GCC), full length (human, UniProt P25092 24-1073); assay: FACS, HT-29#2 cells (full length GCC transfected)
T3 construct: Full length GCC on transfected HT-29 (clones #2, #5, #18) and CT26 (#2.5, #32) cells and endogenous GCC on T84 cells; also called hGCC; STAR
T3 sequence (P25092 24-1073 limits assumed): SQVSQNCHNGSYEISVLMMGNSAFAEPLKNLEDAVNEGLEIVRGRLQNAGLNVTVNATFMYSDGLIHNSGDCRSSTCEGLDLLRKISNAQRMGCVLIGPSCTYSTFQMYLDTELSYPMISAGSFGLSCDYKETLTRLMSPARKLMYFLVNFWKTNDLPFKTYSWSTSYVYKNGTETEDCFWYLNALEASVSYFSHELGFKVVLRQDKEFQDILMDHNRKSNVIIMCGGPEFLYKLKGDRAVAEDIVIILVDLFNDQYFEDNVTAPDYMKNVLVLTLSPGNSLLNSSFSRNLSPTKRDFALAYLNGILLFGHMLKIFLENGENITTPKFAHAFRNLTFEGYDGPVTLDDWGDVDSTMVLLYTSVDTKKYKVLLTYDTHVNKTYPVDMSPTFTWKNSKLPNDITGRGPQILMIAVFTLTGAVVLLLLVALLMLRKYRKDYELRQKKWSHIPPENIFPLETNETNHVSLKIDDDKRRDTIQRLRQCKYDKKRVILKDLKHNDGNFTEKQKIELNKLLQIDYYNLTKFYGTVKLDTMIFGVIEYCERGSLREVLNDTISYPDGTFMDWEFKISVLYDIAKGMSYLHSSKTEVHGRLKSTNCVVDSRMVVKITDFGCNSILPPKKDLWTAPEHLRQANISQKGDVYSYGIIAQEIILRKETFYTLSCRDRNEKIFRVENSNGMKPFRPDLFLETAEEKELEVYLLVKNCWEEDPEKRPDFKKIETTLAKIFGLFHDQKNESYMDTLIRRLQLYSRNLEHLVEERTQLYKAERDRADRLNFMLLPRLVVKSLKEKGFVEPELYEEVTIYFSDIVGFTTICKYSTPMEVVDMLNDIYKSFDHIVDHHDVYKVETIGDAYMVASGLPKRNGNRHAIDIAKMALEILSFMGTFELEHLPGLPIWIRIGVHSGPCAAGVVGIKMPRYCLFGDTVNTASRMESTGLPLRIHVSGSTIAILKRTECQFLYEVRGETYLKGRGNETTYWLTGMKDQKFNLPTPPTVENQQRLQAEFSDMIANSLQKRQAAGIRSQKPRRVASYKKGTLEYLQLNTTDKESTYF

[5] = target: T3, human guanylyl cyclase C (GCC), full …; assay: cell-based or functional assay
[6] = target: T1, human GCC, full length with myc tag …; assay: indirect immunofluorescence flow cytometry, 293 GCC #2 cells;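 note: cells exposed to the test antibodies for 1 h on ice before flow cytometric readout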

T1 sequence (P25092 24-1073): as the sequence (P25092 24-1073 limits assumed) above

B1: mAb 6H8 (antibody, IgG2, V domains shown)
VH: QVQLVESGGGVVQPGRSLRLSCAASGFTFSSYGMHWVRQAPGKGLEWVAAIWYDGSNKYYADSVKGRFTISRDNSKNTLYLQMNSLRAEDTAVYYCARGRSSSYFDYWGQGTLVTVSS
VL: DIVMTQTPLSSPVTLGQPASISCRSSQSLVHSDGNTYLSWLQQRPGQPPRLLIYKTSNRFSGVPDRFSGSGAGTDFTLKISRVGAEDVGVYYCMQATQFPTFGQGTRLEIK
LD50, indirect cytotoxicity with DM1-conjugated mouse anti-human IgG, 293-GCC#2 cells, WST after 4 days [1]: > 4820 pM
binding result (TOK107-hIg [2]): binds

B2: mAb 10C10 (antibody, IgG2, V domains shown)
VH: B1 VH
VL: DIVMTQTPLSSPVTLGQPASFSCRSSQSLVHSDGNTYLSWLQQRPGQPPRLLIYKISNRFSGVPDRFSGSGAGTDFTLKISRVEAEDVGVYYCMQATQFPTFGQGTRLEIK
LD50, indirect cytotoxicity with DM1-conjugated mouse anti-human IgG, 293-GCC#2 cells, WST after 4 days [1]: 2440 pM

B3: mAb 8C2 (antibody, IgG2, V domains shown)
VH: B1 VH with A23V, A49G, D62A, Y94F
VL: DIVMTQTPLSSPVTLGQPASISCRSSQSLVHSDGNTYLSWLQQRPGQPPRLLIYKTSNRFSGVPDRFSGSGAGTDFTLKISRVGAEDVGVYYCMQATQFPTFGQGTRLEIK
LD50, indirect cytotoxicity with DM1-conjugated mouse anti-human IgG, 293-GCC#2 cells, WST after 4 days [1]: 2040 pM
binding result (TOK107-hIg [2]): binds

B4: mAb Abx-020 (antibody, IgG1, V domains shown)
VH: QVQLVESGGGLVKPGGSLRLSCAASGFTFSDYYMSWIRQAPGKGLEWISYITSSGSTIYYSASVKGRFTISRDNAKNSLYLQMNSLRAEDTAVYYCARDFSGWFGVHFDYWGQGTLVTVSS
VL: DIVMTQTPLSLSVTPGQPASISCKSSQSLLHSDGKTYLYWYLQKPGQPPQLLIYEVSNRFSGVPNRFSGSGSGTDFTLKISRVEAEDVGVYYCMQSIQLTWTFGQGTKVEIK
LD50, indirect cytotoxicity with DM1-conjugated mouse anti-human IgG, 293-GCC#2 cells, WST after 4 days [1]: 569 pM
EC50 (TOK107-hIg [3]): 4.58 nM

B5: mAb Abx-221 (antibody, V domains shown)
VH: EVQLLESGGGLVQPGGSLRLSCAASGFTFSRYAMNWVRQAPGKGLEWVSGISGSGGSTYYADSVKGRFTISRDNSKNTLYLQMNSLRAEDTAVYYCAKDRDFWSGPFDYWGQGTLVTVSS
VL: EIVMTPSSATLSVSPGERATLSCRASQSVSRSLAWYQQKPGQAPRLLIYGASTRATGIPARFSGSGSGTEFTLTISSLQSEDVAVYYCQQYNNWMCSFGQGTKLEIK
LD50, indirect cytotoxicity with DM1-conjugated mouse anti-human IgG, 293-GCC#2 cells, WST after 4 days [1]: 207 pM
EC50 (TOK107-hIg [3]): 6.55 nM

B6: mAb Abx-229 (antibody, V domains shown)
VH: B5 VH with S57R
VL: B5 VL with S32N, V83F, Q89H, N92S
LD50, indirect cytotoxicity with DM1-conjugated mouse anti-human IgG, 293-GCC#2 cells, WST after 4 days [1]: 78 pM
EC50 (TOK107-hIg [3]): 29.5 nM

B7: mAb Abx-393 (antibody, IgG1, V domains shown)
VH: QVQLQESGPGLVKPSETLSLTCTVSGGSIRHYYWSWIRQPPGKGLEWIGYIYYSGSTNYNLSLKSRVTISRDTSKNQVSLKLSSVTAADTAVYYCAAGMGFDYWGQGTLVTVSS
VL: DIQMTQSPSSLSASIGDRVTITCRASQAIRNDLGWYQLKPGKAPKRLIYSASSLQSGVPSRFSGSGSGTEFTLTISSLQPEDSATYYCLQHNSFPPTFGQGTKVEIK
LD50, indirect cytotoxicity with DM1-conjugated mouse anti-human IgG, 293-GCC#2 cells, WST after 4 days [1]: > 5400 pM
binding result (TOK107-hIg [2]): binds

B8: mAb 8F1 (antibody, IgG1, V domains shown)
VH: QVQLQQPGAELVKPGASVQMSCKASGYIFTGYWMYWVKQRPGQGLEWIGRIHPSDSNTNYNQKFKGKATLTVDKSSSTAYMQLSSLTSEDSAVYYCTHALAYWGQGTLVTVS
VL: DVVLTQTPLTLSITIGQPASISCKSSQSLLYSNGKTYLSWLLQRPGQSPKRLIYLVSQLDSGVPDRFTGSGSGTDFTLKISRVEAEDLGVYYCVQGTHLFTFGSGTKLEIK
binding result (TOK107-hIg [2]): binds
binding result [4]: binds

B9: mAb Abx-106 (antibody, IgG1, V domains shown)
VH: QVQLQESGPGLVKPSETLSLTCTVSGASISHYYWSWIRQPAGKGLEWIGRIYISGRTSYNPSLKSRVTVSVDTSKNQFSLKLSSVTAADTAVYYCARDRLTGYFDYWGQGTLVTVSS
VL: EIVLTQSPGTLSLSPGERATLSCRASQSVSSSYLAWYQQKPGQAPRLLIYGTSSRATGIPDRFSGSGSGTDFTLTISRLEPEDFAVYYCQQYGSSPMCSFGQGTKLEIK
LD50, indirect cytotoxicity with DM1-conjugated mouse anti-human IgG, 293-GCC#2 cells, WST after 4 days [1]: 166 pM
binding result (TOK107-hIg [2]): binds

B10: mAb Abx-012 (antibody, IgG1, V domains shown)
VH: B9 VH
VL: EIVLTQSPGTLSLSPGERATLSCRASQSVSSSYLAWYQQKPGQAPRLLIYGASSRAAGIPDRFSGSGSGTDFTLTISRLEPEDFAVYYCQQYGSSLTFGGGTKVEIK
notes: also called Abx-12
LD50, indirect cytotoxicity with DM1-conjugated mouse anti-human IgG, 293-GCC#2 cells, WST after 4 days [1]: 279 pM
EC50 (TOK107-hIg [3]): 0.555 nM

B11: mAb Abx-198 (antibody, IgG1, V domains shown)
VH: EVQLLESGGGLVQPGGSLRLSCAASGFTFSSYAMSWVRQAPGKGLDWVSDISGSGGSTYYADSVKGRFTISRDNSKNTLYLQMHSLSAEDTAIYYCAKRRWQGYFDLWGRGTLVTVSS
VL: EIVLTQSPGTLSLSPGERATLSCRARQRVDSRYLAWYQQKPGQAPRLLIYGASSRATGIPDRFSGSGSGTDFTLTISRLEPEDFAVYYCQQYGSSPLTFGGGTKVEIK
LD50, indirect cytotoxicity with DM1-conjugated mouse anti-human IgG, 293-GCC#2 cells, WST after 4 days [1]: > 5400 pM
EC50 (TOK107-hIg [3]): 47.7 nM

B12: mAb 10D3 (antibody, V domains shown)
VH: QVQLQQWGAGLLKPSETLSLTCAVFGGSFSGYYWSWIRQPPGKGLEWIGEINHRGNTNDNPSLKSRVTISVDTSKNQFALKLSSVTAADTAVYYCARERGYTYGNFDHWGQGTLVTVSS
VL: EIVLTQSPGTLSLSPGERATLSCRASQSVSSRYLAWYQQKPGQAPRLLIYGASSRATGTPDRFSGSGSGTDFTLTISRLEPEDFAVYFCQQYERSFTFGPGTKVD
LD50, indirect cytotoxicity with DM1-conjugated mouse anti-human IgG, 293-GCC#2 cells, WST after 4 days [1]: 1600 pM
binding result (TOK107-hIg [2]): binds

B13: 5F9-vc-MMAE (antibody, V domains shown)
VH: B12 VH
VL: EIVMTQSPATLSVSPGERATLSCRASQSVSRNLAWYQQKPGQAPRLLIYGASTRATGIPARFSGSGSGTEFTLTIGSLQSEDFAVYYCQQYKTWPRTFGQGTNVEIK
modifications: mc-vc-MMAE drug-linker on reduced interchain cysteines of the antibody; positions not given
notes: Antibody drug conjugate of 5F9
LD50, direct cytotoxicity, CT 26 GCC #2.5 cells [5]: > 500 nM
LD50, direct cytotoxicity, CT 26 GCC #32 cells [5]: 267 nM
LD50, direct cytotoxicity, HT 29 GCC #2 cells [5]: 24.1 nM
LD50, direct cytotoxicity, HT 29 GCC #5 cells [5]: 654 nM
LD50, direct cytotoxicity, HT 29 GCC #18 cells [5]: 0.555 µM
LD50, direct cytotoxicity, HT29 GCC#5 cells [5]: 0.59 nM
MFI at 0.001 µg/ml [6]: 445
MFI at 0.004 µg/ml [6]: 696
MFI at 0.016 µg/ml [6]: 1790
MFI at 0.063 µg/ml [6]: 4850
MFI at 0.25 µg/ml [6]: 7300
MFI at 1 µg/ml [6]: 7420

B14: 5F9-vc-MMAF (antibody, V domains shown)
VH: B12 VH
VL: B13 VL
modifications: mc-vc-MMAF drug-linker on reduced interchain cysteines of the antibody; positions not given
notes: Antibody drug conjugate of 5F9; average loading about four
LD50, direct cytotoxicity, CT 26 GCC #2.5 cells [5]: > 10 nM
LD50, direct cytotoxicity, CT 26 GCC #32 cells [5]: 0.004 nM
LD50, direct cytotoxicity, HT 29 GCC #2 cells [5]: 0.127 nM
LD50, direct cytotoxicity, HT 29 GCC #5 cells [5]: 563 nM
LD50, direct cytotoxicity, HT 29 GCC #18 cells [5]: > 10 µM
MFI at 0.001 µg/ml [6]: 440
MFI at 0.004 µg/ml [6]: 707
MFI at 0.016 µg/ml [6]: 1500
MFI at 0.063 µg/ml [6]: 4830
MFI at 0.25 µg/ml [6]: 7560
MFI at 1 µg/ml [6]: 7780

B15: 5F9-mc-MMAF (antibody, V domains shown)
VH: B12 VH
VL: B13 VL
modifications: mc-MMAF drug-linker on reduced interchain cysteines of the antibody; positions not given
notes: as for B14
LD50, direct cytotoxicity, CT 26 GCC #2.5 cells [5]: > 10 nM
LD50, direct cytotoxicity, CT 26 GCC #32 cells [5]: 0.064 nM
LD50, direct cytotoxicity, HT 29 GCC #2 cells [5]: 3.1 nM
LD50, direct cytotoxicity, HT 29 GCC #5 cells [5]: > 10000 nM
LD50, direct cytotoxicity, HT 29 GCC #18 cells [5]: > 10 µM
LD50, direct cytotoxicity, HT29 GCC#5 cells [5]: > 10 nM
MFI at 0.001 µg/ml [6]: 483
MFI at 0.004 µg/ml [6]: 776
MFI at 0.016 µg/ml [6]: 2110
MFI at 0.063 µg/ml [6]: 5350
MFI at 0.25 µg/ml [6]: 7400
MFI at 1 µg/ml [6]: 7580
